Drawing on the supplement of paper PMC9732359, this text covers protein stability index for 25 sequences.

± gives the uncertainty stated by the source.

The series is described as follows: protein stability index of a GFP-peptide fusion (yeast GPS) (PSI 1-4); higher = more stable; sorted into four equal gates, so the index is relative within each strain. A digest of the protocol: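 The protein stability index combines read frequencies across sorting gates, each weighted by its gate number and then summed. To obtain those frequencies, a pooled yeast library of GFP fusions to tiled 17-residue yeast protein peptides, on a plasmid also expressing Cherry, was grown to mid-log phase in leucine-free medium. The cells were sorted into four equal gates by GFP/Cherry ratio before plasmid amplification by PCR and Illumina sequencing.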

On to KTYEPVLNEDDLAFGGE [RPN5], for which the protein stability index reads like this: (doa10∆) 3.27 ± 0.09; (pdr5∆) 3.1 ± 0.089; (san1∆) 3.29 ± 0.058; (ubr1∆) 3.51 ± 0.12.

As for RLQAANSMEYTGKITKM [CDC53], the protein stability index (doa10∆) was found to be 2.99 ± 0.12, the protein stability index (pdr5∆) is 2.62 ± 0.14, the protein stability index (san1∆) amounted to 2.52 ± 0.094 and the protein stability index (ubr1∆) turned out to be 2.73 ± 0.064.

In turn, KRQLIKERNQKFQLQNQ [YIL149C/MLP2] returned a protein stability index (doa10∆) of 2.75 ± 0.096, a protein stability index (pdr5∆) of 3.17 ± 0.11, a protein stability index (san1∆) of 2.99 ± 0.059 and a protein stability index (ubr1∆) of 2.78 ± 0.05.

As for GHSLGEYAALASLADVM [FAS1], the protein stability index by setting is: (doa10∆) 2.27 ± 0.061; (pdr5∆) 2.29 ± 0.057; (san1∆) 1.92 ± 0.078; (ubr1∆) 2.6 ± 0.059.

Consider NAIIEANLGKYGILSID [RPL7A], for which the protein stability index is, setting by setting: (doa10∆) 2.87 ± 0.17; (pdr5∆) 2.97 ± 0.14; (san1∆) 2.84 ± 0.094; (ubr1∆) 2.89 ± 0.15.

For the sequence DIETQLCSMLQEASQVT [MED11], the protein stability index reads like this: (doa10∆) 2.73 ± 0.1; (pdr5∆) 2.73 ± 0.11; (san1∆) 2.32 ± 0.11; (ubr1∆) 2.44 ± 0.074.

Regarding LTKYKEMERIVKNLTKY [SRP68], the protein stability index runs as follows: (doa10∆) 2.96 ± 0.069; (pdr5∆) 2.85 ± 0.073; (san1∆) 2.82 ± 0.04; (ubr1∆) 2.78 ± 0.041.

As to ISICMILCGIQEYLNPV [YDL116W/NUP84], the protein stability index by setting is: (doa10∆) 1.97 ± 0.1; (pdr5∆) 1.61 ± 0.11; (ubr1∆) 1.87 ± 0.14.

Consider IGANIYQSPTIFKIVQS [MED6], for which the protein stability index runs as follows: (doa10∆) 2.25 ± 0.069; (pdr5∆) 2.08 ± 0.072; (san1∆) 1.84 ± 0.1; (ubr1∆) 2.27 ± 0.037.

As for HIKFSAGTEANAVSFDT [SRB4], the protein stability index runs as follows: (doa10∆) 1.98 ± 0.068; (pdr5∆) 2.16 ± 0.055; (san1∆) 2.66 ± 0.052; (ubr1∆) 2.21 ± 0.04.

In the case of MDKPLNFRILKSFTNDK [SRB5], the protein stability index amounted to 3.15 ± 0.06 (doa10∆), 3.11 ± 0.059 (pdr5∆), 3.14 ± 0.042 (san1∆) and 3.16 ± 0.036 (ubr1∆).

Turning to TRKAARPQKLRASLVPG [RPL6A], the protein stability index was found to be 1.47 ± 0.21 (doa10∆), 1.5 ± 0.12 (pdr5∆) and 2 ± 0.12 (ubr1∆).

For ILKKSLMTSHTKGDTSK [RTT102], the protein stability index is, setting by setting: (doa10∆) 2.6 ± 0.11; (pdr5∆) 3.05 ± 0.085; (san1∆) 2.81 ± 0.085; (ubr1∆) 3.05 ± 0.13.

In turn, NTLEEFEHGRTPAEMSR [FAS2] yielded a protein stability index (doa10∆) of 2.8 ± 0.15, a protein stability index (pdr5∆) of 3.09 ± 0.16, a protein stability index (san1∆) of 3.19 ± 0.16 and a protein stability index (ubr1∆) of 3.57 ± 0.15.

For ETRNGKVKNQGADVTNT [YCS4], the protein stability index is, setting by setting: (doa10∆) 3.22 ± 0.1; (pdr5∆) 3.45 ± 0.17; (san1∆) 3.11 ± 0.072; (ubr1∆) 3.18 ± 0.076.

Consider TDLHLPKKEYDDDAVRR [NSL1], for which the protein stability index came to 1.99 ± 0.13 (doa10∆), 2.25 ± 0.12 (pdr5∆), 1.42 ± 0.24 (san1∆) and 3.13 ± 0.11 (ubr1∆).

Regarding LWINYIKELLNITKNLK [POP4], the protein stability index is, setting by setting: (doa10∆) 1.34 ± 0.071; (pdr5∆) 1.56 ± 0.062; (san1∆) 1.62 ± 0.11; (ubr1∆) 1.78 ± 0.054.

Sequence FGHLMHYGNEHIRRMVP [RPN1] yielded a protein stability index (doa10∆) of 1.71 ± 0.042, a protein stability index (pdr5∆) of 1.82 ± 0.039, a protein stability index (san1∆) of 1.6 ± 0.063 and a protein stability index (ubr1∆) of 1.96 ± 0.034.

With DQKETKKGESEKDASGK [YOR098C/NUP1], the protein stability index runs as follows: (doa10∆) 3.45 ± 0.18; (pdr5∆) 3.37 ± 0.15; (san1∆) 3.49 ± 0.097; (ubr1∆) 3.37 ± 0.1.

Regarding EKTYTKAPKIQRLVTPQ [RPS6A], the protein stability index was 2.62 ± 0.056 (doa10∆), 2.43 ± 0.055 (pdr5∆), 2.11 ± 0.064 (san1∆) and 2.22 ± 0.037 (ubr1∆).

With DDDDYNAEKYFNNGDDD [RPC31], the protein stability index reads like this: (doa10∆) 3.01 ± 0.12; (pdr5∆) 3.13 ± 0.16; (san1∆) 3.06 ± 0.082; (ubr1∆) 3.19 ± 0.07.

Sequence RTKSQVIEEDYDDEQNT [IRR1] had a protein stability index (doa10∆) of 2.4 ± 0.071, a protein stability index (pdr5∆) of 2.83 ± 0.15, a protein stability index (san1∆) of 2.38 ± 0.099 and a protein stability index (ubr1∆) of 1.83 ± 0.16.

Sequence FPRSRSRSRSSIRSISP [ESC2] gave a protein stability index (doa10∆) of 2.86 ± 0.2, a protein stability index (pdr5∆) of 3.18 ± 0.13, a protein stability index (san1∆) of 3.03 ± 0.09 and a protein stability index (ubr1∆) of 3.34 ± 0.19.

For the sequence KKLNKNKKLIKKLSKKY [RPL1A], the protein stability index turned out to be 3.78 ± 0.21 (doa10∆), 3.43 ± 0.11 (pdr5∆), 3.1 ± 0.12 (san1∆) and 3.52 ± 0.22 (ubr1∆).

As for VHPRKSYKMNSSAADIT [PRP8], the protein stability index runs as follows: (doa10∆) 2.77 ± 0.079; (pdr5∆) 2.88 ± 0.075; (san1∆) 2.88 ± 0.053; (ubr1∆) 2.74 ± 0.058.
